This is an account of results in patent US20130189259A1 (INSERM INSTITUT NATIONAL DE LA SANTE ET DE LA RECHERCHE …, published 2013).

For test [1], the target named is human glycoprotein VI on human platelets (human) (UniProt Q9HCN6). Nature of the test: flow cytometry of human platelets with bacterial periplasmic extract, FITC-coupled anti-c-myc antibody [upper panel]. A general note: Flow cytometry measures light scatter and fluorescence of single cells or particles in a stream.
The target is the same in test [2]. The test can be described thus: flow cytometry, periplasmic extract on human platelets, FITC anti-c-myc.
Test [3] shares this target. Nature of the test: flow cytometry of washed human platelets with an irrelevant scFv, FITC-coupled anti-c-myc IgG [top panel].
Test [4] concerns the target T1, recombinant soluble human GPVI (GPVI-Fc) (human, UniProt Q9HCN6 21-267).
T1 construct: extracellular domain; also called soluble recombinant GPVI; purified GPVI; not shown: human Ig Fc domain
T1 sequence (looked up): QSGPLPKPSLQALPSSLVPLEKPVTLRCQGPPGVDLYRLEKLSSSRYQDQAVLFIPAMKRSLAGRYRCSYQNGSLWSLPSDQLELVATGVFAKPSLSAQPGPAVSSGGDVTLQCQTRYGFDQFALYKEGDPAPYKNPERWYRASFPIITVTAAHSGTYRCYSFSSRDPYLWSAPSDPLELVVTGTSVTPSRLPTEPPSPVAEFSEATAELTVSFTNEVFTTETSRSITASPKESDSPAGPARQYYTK
The test can be described thus: SPR against immobilized GPVI (procedure as in Example 1).

For test [5], the target named is T1, recombinant soluble human GPVI (GPVI-Fc). Nature of the test: inhibition of GPVI-Fc binding to immobilized collagen, ELISA. The method, then:
(§1) FIG. 9. Inhibition of GPVI binding to immobilized collagen. GPVI-Fc was incubated on immobilized collagen in the presence of increasing amounts of antibodies: scFv 9O12.2 (triangle), or pFab (square) (A): 2 μg of GP VI-Fc; (B): 4 μg of GPVI-Fc Bound GPVI-Fc was detected using an HRP coupled anti-Fc IgG.
(In an ELISA, binding on a coated surface is turned into a signal by an enzyme label.)

Test [6] has the same target. Nature of the test: SPR (BIAcore 2000), GPVI-Fc immobilized on CM5, first series. How it is done:
(§2) Binding of the anti-GPVI scFv to recombinant GPVI-Fc is analyzed with surface plasmon resonance using a BIAcore 2000 system (Uppsala, Sweden). Binding studies is performed with scFv 9O12, Proteolytic Fab and parental IgG.
(§3) Recombinant GPVI-Fc is immobilized (˜600 RU) onto a Carboxy-Methyl Dextran CM5 sensor chip using the amine coupling method (Wizard procedure). Antibody is then passed over the immobilized recombinant GPVI-Fc in HBS-EP buffer (0.01 M HEPES pH 7.4, 0.15 M NaCl, 0.005% polysorbate 20 (v/v)) at a flow rate of 20 μl/min at 25° C. Kinetic constants (kₐ, kd) and affinity are determined using BIAevaluation version 3.1 software, by fitting data to binding model. HBS-EP is the running buffer. 10 mM glycine-HCl pH 2.5 injected for 30 s at 20 μl/min is the regeneration buffer. All reagents and buffers used are from Biacore.
In general terms: Surface plasmon resonance follows binding to a sensor surface in real time, without labels.

Test [7] has the same target. Nature of the test: blocking ELISA: 4 µg GPVI-Fc on immobilized collagen with increasing antibody fragment; blocked ligand: fibrillar type I collagen; bound GPVI-Fc detected with HRP-coupled anti-Fc. How it is done:
as §1

Test [8] has the same target. The test can be described thus: SPR (BIAcore 2000), GPVI-Fc immobilized on CM5, second series. The method, then:
as §2, §3

The target is the same in test [9]. The test can be described thus: competition ELISA on GPVI-Fc coated plates; competitor: scFv 9O12.2 at a fixed concentration (60 µg/mL in the legend, 100 µg/ml in the methods), bound scFv detected with HRP-coupled anti-c-myc.

Several values for one entry are separate records, joined by “and”; a condition that tells them apart may be missing. Equal values may be shown once.

With “irrelevant scFv (c-myc tagged negative control)”, the % positive platelets (FITC count) in [1] was 0.03%; in test [3] it was 0.17%. In [2], this molecule came in with a % positive platelets of 0.17%.

B1: second optimized humanized scFv 9O12.2 fragment, hscFv 9O12.2(2) (scFv)
scFv: QVQLQESGAEVKKPGASVKVSCKASGYSFTSYNMHWVRQAPGQRLEWMGGIYPGNGDTSFNQKFKGKATLTADKSSRTAYMGLSSLRPEDTAVYYCARGTVVGDWYFDVWGQGTLVTVSSGGGGSGGGGSGGGGSDVLMTQTPLSLPVSLGDQASISCRSSQSLENSNGNTYLNWYLQKPGQSPQLLIYRVSNRFSGVLDRFSGSGSGTDFTLTISSLQPEDFAIYYCLQLTHVPWTFGGGTKVEIKRSRVTVSSDQKLISEEDLN
notes: Murine VL FR1 and FR2 are kept; Detected through its c-myc flag
Turning to B1, in test [4], the Kd – broadly, the concentration at which binding is half-saturated – came to 3.2 nM; the koff (as a rule, the first-order rate constant of dissociation) stood at 0.000186 s⁻¹; the kon (commonly a measure of how fast the partners come together) was 58000 M⁻¹ s⁻¹.

B2: murine single chain variable fragment scFv 9O12.2 (VH-(Gly4Ser)3-VL, spacer, c-myc flag) (scFv)
scFv: QVQLQESGAELVKPGASVKMSCKASGYTFTSYNMHWVKQTPGQGLEWIGGIYPGNGDTSFNQKFKGKATLTADKSSRTAYMQLSSLTSEDSAVYYCARGTVVGDWYFDVWGAGTTLTVSSGGGGSGGGGSGGGGSDVLMTQTPLSLPVSLGDQASISCRSSQSLENSNGNTYLNWYLQKPGQSPQLLIYRVSNRFSGVLDRFSGSGSGTDFTLKISRVEAEDLGVYFCLQLTHVPWTFGGGTKLEIKRSRVTVSSEQKLISEEDLN
notes: Made in the E. coli periplasm through a pelB leader; Tested as periplasmic extract or after purification on GPVI-sepharose; The monomer was isolated by size exclusion for the aggregation assay; also called mscFv 9O12.2; mscFv 9O12
Take B2: in test [5], the IC50 (in general, the concentration that inhibits the measured activity by half) was ~1.17 µg/mL and ~42 µM. Also, the Kd in test [6] stood at 2.5 nM. Besides, the “IC50 (read off the curve)” value in [7] is roughly 4 µg/mL. Besides, in [8], the Kd stood at 2.6 nM, the koff was 0.00017 s⁻¹ and the kon was 65000 M⁻¹ s⁻¹.

B3: 9O12.2 Fab fragment prepared by papain digestion of the parental IgG (Fab, V domains shown)
VH: QVQLQESGAELVKPGASVKMSCKASGYTFTSYNMHWVKQTPGQGLEWIGGIYPGNGDTSFNQKFKGKATLTADKSSRTAYMQLSSLTSEDSAVYYCARGTVVGDWYFDVWGAGTTLTVSS
VL: DVLMTQTPLSLPVSLGDQASISCRSSQSLENSNGNTYLNWYLQKPGQSPQLLIYRVSNRFSGVLDRFSGSGSGTDFTLKISRVEAEDLGVYFCLQLTHVPWTFGGGTKLEIK
notes: Papain Fab of the murine IgG1 kappa antibody; also called Fab 9O12.2; Fab 9O12
For B3, the concentration for half-maximal inhibition (IC50) in [5] is 2.1 µg/mL and 15 nM. In addition, the results for the Kd in test [6] and in test [8] were 4.5 nM and 2.3 nM, respectively. In addition, in [7], the “IC50 (read off the curve)” value is roughly 7 µg/mL.

B4: 9O12.2 monoclonal anti-human GPVI antibody (murine IgG1, kappa) (antibody, V domains shown)
VH: QVQLQESGAELVKPGASVKMSCKASGYTFTSYNMHWVKQTPGQGLEWIGGIYPGNGDTSFNQKFKGKATLTADKSSRTAYMQLSSLTSEDSAVYYCARGTVVGDWYFDVWGAGTTLTVSS
VL: DVLMTQTPLSLPVSLGDQASISCRSSQSLENSNGNTYLNWYLQKPGQSPQLLIYRVSNRFSGVLDRFSGSGSGTDFTLKISRVEAEDLGVYFCLQLTHVPWTFGGGTKLEIK
notes: The VL is therefore written as 136-247; also called 9O12.2 IgG; IgG 9O12.2
Consider B4, for which the figures for the Kd in test [6] and in [8] were 6.5 nM and 4 nM, respectively. Moreover, in test [9], the “IC50 (read off the curve)” value was roughly 20 µg/mL.
